Data reported in article PMC8130932 (PLoS Pathogens, 2021).

B1: FD 7C (antibody, V domains shown)
VH: QLQLQESGPGLVKPSETLSLTCTVSGGSISSYYWSWIRQPPGKGLEWIGYIYYSGSTNYNPSLKSRVTISVDTSKNQFSLKLSSVTAADTAVYYCARDYRFGELFGRFAWFDPWGQGTLVTVSS
VL: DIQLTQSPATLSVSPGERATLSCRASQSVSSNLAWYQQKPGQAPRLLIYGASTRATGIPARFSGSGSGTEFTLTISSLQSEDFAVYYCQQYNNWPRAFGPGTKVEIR
notes: source: HEK293T, transfected; culture supernatant or purified
B2: FD 5E (antibody, V domains shown)
VH: EVQLVESGGVVVQPGGSLRLSCAASGFTFDDYAMHWVRQAPGKGLEWVSLISWDGGSTYYADSVKGRFTISRDNSKNSLYLQMNSLRAEDTALYYCAKDSVRFRYYYGMDVWGQGTTVTVSS
VL: EIVLTQSPATLSLSPGERATLSCRASQSVSSYLAWYQQKPGQAPRLLIYDASNRATGIPARFSGSGSGTDFTLTISSLEPEDFAVYYCQQRSNWPLTFGPGTKVDIK
notes: as for B1
B3: EW 9B (antibody, V domains shown)
VH: EVQLVQSGAEVKKPGASVKVSCKASGYTFTSYYMHWVRQAPGQGLEWMGIINPSGGSTSYAQKFQGRVTMTRDTSTSTVYMELSSLRSEDTAVYYCAREDGVVPAANLMISLEDYYYYGMDVWGQGTTVTVSS
VL: EIVLTQSPATLSLSPGERATLSCRASQSVSSYLAWYQQKPGQAPRLLIYDASNRATGIPARFSGSGSGTDFTLTISSLEPEDFAVYYCQQRSNWPLTFGGGTKVDIK
notes: as for B1
B4: FI 3A (antibody, V domains shown)
VH: EVQLLESGGGLIQPGGSLRLSCAASGFTVSSNYMSWVRQAPGKGLEWVSVIYSGGSTYYADSVKGRFTISRDNSKNTLYLQMNSLRAEDTAVYYCARDHVRPGMNIWGQGTMVTVSS
VL: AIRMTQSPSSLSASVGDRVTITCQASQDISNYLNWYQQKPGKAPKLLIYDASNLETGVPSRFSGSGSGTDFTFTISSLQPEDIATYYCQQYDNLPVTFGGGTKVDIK
notes: as for B1
B5: FD 11C (antibody, V domains shown)
VH: EVQLLESGPGLVKPSETLSLTCTVSGGSISSSSYYWGWIRQPPGKGLEWIGSIYYSGSTYYNPSLKSRVTISVDTSKNQFSLKLSSVTAADTAVYYCAREYYYGSETKKYYYYYGMDVWGQGTTVTVSS
VL: not shown
notes: as for B1
B6: FD 7D (antibody, V domains shown)
VH: EVQLVESGAEVKKPGESLRISCKGSGYSFTSYWISWVRQMPGKGLEWMGRIDPSDSYTNYSPSFQGHVTISADKSISTAYLQWSSLKASDTAMYYCARHSDCSSTSCYFVDAFDIWGQGTMVTVSS
VL: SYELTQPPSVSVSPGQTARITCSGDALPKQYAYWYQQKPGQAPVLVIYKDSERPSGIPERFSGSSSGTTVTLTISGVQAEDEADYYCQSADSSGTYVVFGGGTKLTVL
notes: as for B1
B7: FG 12C (antibody, V domains shown)
VH: EVQLVESGGGLVQPGRSLRLSCAASGFTFDDYAMHWVRQAPGKGLEWVSGISWNSGSIGYADSVKGRFTISRDNAKNSLYLQMNSLRAEDTALYYCAKDMRVHDYGDYYFDYWGQGTLVTVSS
VL: SYELTQPPSVSVAPGKTARITCGGNNIGSKSVHWYQQKPGQAPVLVIYYDSDRPSGIPERFSGSNSGNTATLTISRVEAGDEADYYCQVWDSSSDHPVFGGGTKLTVL
notes: as for B1
B8: FN 8C (antibody, V domains shown)
VH: QVQLVESGGGVVQPGRSLRLSCAASGFTFSSYGMHWVRQAPGKGLEWVAVISYDGSNKYYADTVKGRFTISRDNSKNTLYLQMNSLRAEDTAVYYCARERTYYDILTGYRHYYGMDVWGQGTTVTVSS
VL: SYELTQPPSVSVAPGQTARITCGGNNIGSKSVHWYQQKPGQAPVLVVYDDSDRPSGIPERFSGSNSGNTATLTISRVEAGDEADYYCQVWDSSSDHWVFGGGTKLTVL
notes: as for B1
B9: FD 11D (antibody, V domains shown)
VH: EVQLVESGGGVVQPGRSLRLSCAASGFTFSSYGMHWVRQAPGKGLEWVAVISYDGSNKYYADSVKGRFTISRDNSKNTLYLQMNSLRAEDTAVYYCAKEGAGSGWYRHHKPGYYFDYWGQGTLVTVSS
VL: not shown
notes: as for B1

How the values were obtained:
[1] = biological target: T1, SARS-CoV-2 RBD (amino acids 340-538) on MDCK-SIAT1 cells (SARS-CoV-2 (so in the source)); experiment: flow cytometry on cells; conditions: one partner purified
T1 construct: also called MDCK-RBD; source: MDCK-SIAT1, stably transduced (lentiviral vector), on the cell surface

[2] = biological target: T2, SARS-CoV-2 NTD on MDCK-SIAT1 cells (SARS-CoV-2 (so in the source)); experiment: flow cytometry on cells; conditions: one partner purified
T2 construct: also called MDCK-NTD

[3] = biological target: T3, SARS-CoV-2 spike receptor-binding domain, recombinant (SARS-CoV-2, reference sequence, UniProt P0DTC2); experiment: ELISA
T3 construct: also called RBD; source: bought: Sino Biologicals, baculovirus-insect cells

| Binder | binding result [1] | binding result [2] | OD450 [3] |
| --- | --- | --- | --- |
| B1 | no binding | binds | – |
| B2 | no binding | no binding | – |
| B3 | no binding | no binding | – |
| B4 | binds | – | 1.12 OD450 |
| B5 | no binding | no binding | – |
| B6 | no binding | no binding | – |
| B7 | no binding | no binding | – |
| B8 | no binding | no binding | – |
| B9 | no binding | – | – |
